Laboratory results: patent publication US20170081400A1 (CEPHALON, published 2017)

T1: human TL1A extracellular domain with N-terminal HIS and FLAG tag (human, UniProt O95150 72-251)
T1 construct: the whole entry is named
T1 sequence: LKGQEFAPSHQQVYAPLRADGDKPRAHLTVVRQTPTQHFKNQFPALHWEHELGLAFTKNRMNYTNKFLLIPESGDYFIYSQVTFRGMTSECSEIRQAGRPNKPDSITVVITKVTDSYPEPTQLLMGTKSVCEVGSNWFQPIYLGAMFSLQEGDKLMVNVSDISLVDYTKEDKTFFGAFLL

T2: human TL1A extracellular domain with N-terminal HIS and FLAG tag (human) (UniProt O95150)
T2 sequence: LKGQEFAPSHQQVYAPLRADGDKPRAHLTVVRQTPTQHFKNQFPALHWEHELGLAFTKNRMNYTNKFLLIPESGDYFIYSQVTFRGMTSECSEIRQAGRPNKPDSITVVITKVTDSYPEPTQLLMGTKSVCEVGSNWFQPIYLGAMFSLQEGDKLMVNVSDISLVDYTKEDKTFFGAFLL

T3: human TL1A extracellular domain with N-terminal HIS and FLAG tag (human, UniProt O95150 72-251)
T3 construct: whole entry named. ~70 kDa fraction purified by gel filtration
T3 sequence: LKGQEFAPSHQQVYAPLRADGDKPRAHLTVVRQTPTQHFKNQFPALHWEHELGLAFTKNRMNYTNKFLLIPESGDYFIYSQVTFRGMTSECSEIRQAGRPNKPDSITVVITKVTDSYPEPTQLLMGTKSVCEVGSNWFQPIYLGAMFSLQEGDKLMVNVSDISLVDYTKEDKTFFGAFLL


Legend:
[1] = target: T1, human TL1A extracellular domain with …; assay: SPR Run 5, Ab from supernatant captured on Protein A, TL1A 5 ug/mL, timepoint 44
From the text: (§1) 1.5. Antibody expression and antigen binding as determined by SPR. Using a CM5 sensor chip (GE Healthcare) Protein A (Pierce) was coupled to the chip surface using an amine coupling kit (GE Healthcare). Protein A was coupled on flow cell 1 and 2 (or alternatively 3 and 4) using a BIACORE® T200. […] The amount of supernatant or purified protein (as well as the concentration) injected during the capture stage varied between runs and is specified in the header of the Tables 3-11. At the end of injection of the supernatant or purified antibody the change in response units was measured. This value was reported as Capture Level in Tables 3-11. […] The response units were measured prior to the end of the dissociation phase. […] The sensorgrams were double referenced (flow cell 2 is subtracted from flow cell 1 and a buffer blank). As there were a large number of antibody variants to screen, these were screened across different runs (Tables 3-11). […] A summary of the conditions used in each run is below:
(§2) 2.1. […] In some experiment the antibodies were purified using Protein A chromatography (See 1.4) and purified antibodies were used in BIACORE® (GE Healthcare) experiments.

[2] = target: T1, human TL1A extracellular domain with …; assay: SPR Run 5, Ab from supernatant captured on Protein A, TL1A 5 ug/mL, timepoint 220
From the text: as §1, §2

[3] = target: T2, human TL1A extracellular domain with N-terminal HIS and FLAG tag (human); assay: cell-based or functional assay
[4] = target: T3, human TL1A extracellular domain with …; assay: SPR run 2; supernatant on Protein A; TL1A 10 ug/mL; timepoint 44
From the text: as §1, §2

[5] = target: T3, human TL1A extracellular domain with …; assay: SPR run 2; supernatant on Protein A; TL1A 10 ug/mL; timepoint 220
From the text: as §1, §2

TL1A Binding Level (Early) [1]	TL1A Binding Level (Late) [2]	Antibody IC50, TL1A induced caspase potency assay in TF-1 cells [3]	Fold improvement over 320-179, TL1A induced caspase potency assay in TF-1 cells [3]	TL1A Binding Level (Early) [4]	TL1A Binding Level (Late) [5]	Binder
-1 RU	-1 RU					320-373 (antibody, human IgG1, name in Kabat numbering, V domains shown, human IgG1, lambda) VH: QVQLVQSGAEVKKPGASVKVSCKASGYTFTSYDINWVRQAPGQGLEWMGWLNPNSGNTGYAQKFQGRVTMTADRSTSTAYMELSSLRSEDTAVYYCAREVPETAAFEYWGQGTLVTVSS VL: QSVLTQPPSVSGAPGQRVTISCTSSSSDIGAGLGVHWYQQLPGTAPKLLIEGYYNRPSGVPDRFSGSKSGTSASLTITGLLPEDEGDYYCQSYDGTLSQLFGGGTKLTVLG
3 RU	1 RU					320-379 (antibody, human IgG1, name in Kabat numbering, V domains shown, human IgG1, lambda) VH: QVQLVQSGAEVKKPGASVKVSCKASGYTFTSYDINWVRQAPGQGLEWMGWLNPNSGNTGYAQKFQGRVTMTADRSTSTAYMELSSLRSEDTAVYYCAREVPETAAFEYWGQGTLVTVSS VL: QSVLTQPPSVSGAPGQRVTISCTSSSSDIGAGLGVHWYQQLPGTAPKLLIEGYYNRPSGVPDRFSGSKSGTSASLTITGLLPEDEGDYYCQSYDGTLSYLFGGGTKLTVLG
		0.03 µg/mL	1 fold	250 RU	228 RU	320-226 (antibody, human IgG1, name in Kabat numbering, V domains shown, human IgG1, lambda) VH: QVQLVQSGAEVKKPGASVKVSCKASGYTFTSYDINWVRQAPGQGLEWMGWLNPNSGNTGYAQKFQGRVTMTADRSTSTAYMELSSLRSEDTAVYYCAREVPETAAFEYWGQGTLVTVSS VL: QSVLTQPPSVSGAPGQRVTISCTSSSQDIGAGLGVHWYQQLPGTAPKLLIEGYYNRPSGVPDRFSGSKSGTSASLTITGLLPEDEGDYYCQSYDGTLSALFGGGTKLTVLG
		0.04 µg/mL	2 fold	268 RU	251 RU	320-229 (antibody, human IgG1, name in Kabat numbering, V domains shown, human IgG1, lambda) VH: QVQLVQSGAEVKKPGASVKVSCKASGYTFTSYDINWVRQAPGQGLEWMGWLNPNSGNTGYAQKFQGRVTMTADRSTSTAYMELSSLRSEDTAVYYCAREVPETAAFEYWGQGTLVTVSS VL: QSVLTQPPSVSGAPGQRVTISCTSSSKDIGAGLGVHWYQQLPGTAPKLLIEGYYNRPSGVPDRFSGSKSGTSASLTITGLLPEDEGDYYCQSYDGTLSALFGGGTKLTVLG
		0.54 µg/mL	0 fold	59 RU	26 RU	320-245 (antibody, human IgG1, name in Kabat numbering, V domains shown, human IgG1, lambda) VH: QVQLVQSGAEVKKPGASVKVSCKASGYTFTSYDINWVRQAPGQGLEWMGWLNPNSGNTGYAQKFQGRVTMTADRSTSTAYMELSSLRSEDTAVYYCAREVPETAAFEYWGQGTLVTVSS VL: QSVLTQPPSVSGAPGQRVTISCTSSSSDHGAGLGVHWYQQLPGTAPKLLIEGYYNRPSGVPDRFSGSKSGTSASLTITGLLPEDEGDYYCQSYDGTLSALFGGGTKLTVLG
14 RU	13 RU					320-388 (antibody, human IgG1, name in Kabat numbering, V domains shown, human IgG1, lambda) VH: QVQLVQSGAEVKKPGASVKVSCKASAYTFTSYDINWVRQAPGQGLEWMGWLNPNSGNTGYAQKFQGRVTMTADRSTSTAYMELSSLRSEDTAVYYCAREVPETAAFEYWGQGTLVTVSS VL: QSVLTQPPSVSGAPGQRVTISCTSSSSDIGAGLGVHWYQQLPGTAPKLLIEGYYNRPSGVPDRFSGSKSGTSASLTITGLLPEDEGDYYCQSYDGTLSALFGGGTKLTVLG
3 RU	1 RU					320-381 (antibody, human IgG1, name in Kabat numbering, V domains shown, human IgG1, lambda) VH: QVQLVQSGAEVKKPGASVKVSCKASGYTFTSYDINWVRQAPGQGLEWMGWLNPNSGNTGYAQKFQGRVTMTADRSTSTAYMELSSLRSEDTAVYYCAREVPETAAFEYWGQGTLVTVSS VL: QSVLTQPPSVSGAPGQRVTISCTSSSSDIGAGLGVHWYQQLPGTAPKLLIEGYYNRPSGVPDRFSGSKSGTSASLTITGLLPEDEGDYYCQSYDGTLSASFGGGTKLTVLG
3 RU	1 RU					320-376 (antibody, human IgG1, name in Kabat numbering, V domains shown, human IgG1, lambda) VH: QVQLVQSGAEVKKPGASVKVSCKASGYTFTSYDINWVRQAPGQGLEWMGWLNPNSGNTGYAQKFQGRVTMTADRSTSTAYMELSSLRSEDTAVYYCAREVPETAAFEYWGQGTLVTVSS VL: QSVLTQPPSVSGAPGQRVTISCTSSSSDIGAGLGVHWYQQLPGTAPKLLIEGYYNRPSGVPDRFSGSKSGTSASLTITGLLPEDEGDYYCQSYDGTLSKLFGGGTKLTVLG
		0.02 µg/mL	1 fold	179 RU	122 RU	320-241 (antibody, human IgG1, name in Kabat numbering, V domains shown, human IgG1, lambda) VH: QVQLVQSGAEVKKPGASVKVSCKASGYTFTSYDINWVRQAPGQGLEWMGWLNPNSGNTGYAQKFQGRVTMTADRSTSTAYMELSSLRSEDTAVYYCAREVPETAAFEYWGQGTLVTVSS VL: QSVLTQPPSVSGAPGQRVTISCTSSSSDAGAGLGVHWYQQLPGTAPKLLIEGYYNRPSGVPDRFSGSKSGTSASLTITGLLPEDEGDYYCQSYDGTLSALFGGGTKLTVLG
0 RU	0 RU					320-382 (antibody, human IgG1, name in Kabat numbering, V domains shown, human IgG1, lambda) VH: QVQLVQSGAEVKKPGASVKVSCKASGYTFTSYDINWVRQAPGQGLEWMGWLNPNSGNTGYAQKFQGRVTMTADRSTSTAYMELSSLRSEDTAVYYCAREVPETAAFEYWGQGTLVTVSS VL: QSVLTQPPSVSGAPGQRVTISCTSSSSDIGAGLGVHWYQQLPGTAPKLLIEGYYNRPSGVPDRFSGSKSGTSASLTITGLLPEDEGDYYCQSYDGTLSAQFGGGTKLTVLG
-1 RU	-1 RU					320-378 (antibody, human IgG1, name in Kabat numbering, V domains shown, human IgG1, lambda) VH: QVQLVQSGAEVKKPGASVKVSCKASGYTFTSYDINWVRQAPGQGLEWMGWLNPNSGNTGYAQKFQGRVTMTADRSTSTAYMELSSLRSEDTAVYYCAREVPETAAFEYWGQGTLVTVSS VL: QSVLTQPPSVSGAPGQRVTISCTSSSSDIGAGLGVHWYQQLPGTAPKLLIEGYYNRPSGVPDRFSGSKSGTSASLTITGLLPEDEGDYYCQSYDGTLSWLFGGGTKLTVLG
3 RU	2 RU					320-384 (antibody, human IgG1, name in Kabat numbering, V domains shown, human IgG1, lambda) VH: QVQLVQSGAEVKKPGASVKVSCKASGYTFTSYDINWVRQAPGQGLEWMGWLNPNSGNTGYAQKFQGRVTMTADRSTSTAYMELSSLRSEDTAVYYCAREVPETAAFEYWGQGTLVTVSS VL: QSVLTQPPSVSGAPGQRVTISCTSSSSDIGAGLGVHWYQQLPGTAPKLLIEGYYNRPSGVPDRFSGSKSGTSASLTITGLLPEDEGDYYCQSYDGTLSAHFGGGTKLTVLG
3 RU	1 RU					320-383 (antibody, human IgG1, name in Kabat numbering, V domains shown, human IgG1, lambda) VH: QVQLVQSGAEVKKPGASVKVSCKASGYTFTSYDINWVRQAPGQGLEWMGWLNPNSGNTGYAQKFQGRVTMTADRSTSTAYMELSSLRSEDTAVYYCAREVPETAAFEYWGQGTLVTVSS VL: QSVLTQPPSVSGAPGQRVTISCTSSSSDIGAGLGVHWYQQLPGTAPKLLIEGYYNRPSGVPDRFSGSKSGTSASLTITGLLPEDEGDYYCQSYDGTLSADFGGGTKLTVLG
-1 RU	-1 RU					320-377 (antibody, human IgG1, name in Kabat numbering, V domains shown, human IgG1, lambda) VH: QVQLVQSGAEVKKPGASVKVSCKASGYTFTSYDINWVRQAPGQGLEWMGWLNPNSGNTGYAQKFQGRVTMTADRSTSTAYMELSSLRSEDTAVYYCAREVPETAAFEYWGQGTLVTVSS VL: QSVLTQPPSVSGAPGQRVTISCTSSSSDIGAGLGVHWYQQLPGTAPKLLIEGYYNRPSGVPDRFSGSKSGTSASLTITGLLPEDEGDYYCQSYDGTLSLLFGGGTKLTVLG
-2 RU	-1 RU					320-375 (antibody, human IgG1, name in Kabat numbering, V domains shown, human IgG1, lambda) VH: QVQLVQSGAEVKKPGASVKVSCKASGYTFTSYDINWVRQAPGQGLEWMGWLNPNSGNTGYAQKFQGRVTMTADRSTSTAYMELSSLRSEDTAVYYCAREVPETAAFEYWGQGTLVTVSS VL: QSVLTQPPSVSGAPGQRVTISCTSSSSDIGAGLGVHWYQQLPGTAPKLLIEGYYNRPSGVPDRFSGSKSGTSASLTITGLLPEDEGDYYCQSYDGTLSHLFGGGTKLTVLG
11 RU	10 RU					320-387 (antibody, human IgG1, name in Kabat numbering, V domains shown, human IgG1, lambda) VH: QVQLVQSGAEVKKPGASVKVSCKASGYTFTSYDINWVRQAPGQGLEWMGWLNPNSGNTGYAQKFQGRVTMTADRSTSTAYMELSSLRSEDTAVYYCAREVPETAAFEYWGQGTLVTVSS VL: QSVLTQPPSVSGAPGQRVTISCTSSSSDIGAGLGVHWYQQLPGTAPKLLIEGYYNRPSGVPDRFSGSKSGTSASLTITGLLPEDEGDYYCQSYDGTLSAYFGGGTKLTVLG
